The record followed here is patent CN115594767A.

Test [1] concerns the target HER2 (Human epidermal growth factor receptor 2) (human) (UniProt P04626). The test can be described thus: ELISA, HER2 coated at 1 ug/mL, HRP-anti-human IgG Fc detection.
In the next test the target is CD16A-158V (UniProt P08637). The test is described as follows: BLI, CD16A-158V on anti-his probe, antibody as analyte.

pEC50, pKd: −log10 of the molar value.

Chain of UniProt P08637 (P08637 17-208 F176V limits assumed): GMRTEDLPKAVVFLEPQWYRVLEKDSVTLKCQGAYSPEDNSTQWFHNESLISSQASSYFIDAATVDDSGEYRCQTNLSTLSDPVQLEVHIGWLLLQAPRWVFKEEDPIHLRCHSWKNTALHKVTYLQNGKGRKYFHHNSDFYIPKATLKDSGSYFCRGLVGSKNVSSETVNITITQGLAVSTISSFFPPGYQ

Take MGAH22 (antibody): in test [1], the pEC50 is 9.89.
In test [1], KN026 (bispecific antibody) showed a pEC50 of 9.83. In the test with CD16A-158V, this substance showed a pKd of 6.33, a koff of 0.0782 s⁻¹ and a kon of 168000 M⁻¹ s⁻¹.
